Consider eleven molecules from patent publication US20260193348A1 (ANTENGENE BIOLOGICS, published 2026).

Assay [1] deals with T1, CD3 on T cells / Jurkat cells (human, UniProt P07766 23-207; P04234 22-171; P09693 23-182).
T1 construct: whole, on cells; Native CD3 complex on CD3+ T cells isolated from normal donors or on Jurkat cells; also called human CD3; CD3+ T cells
In words: FACS on Jurkat cells.

Assay [2] deals with T2, GPRC5D on multiple myeloma cells (human, UniProt Q9NZD1 1-345).
T2 construct: whole, on cells; Endogenous GPRC5D on multiple myeloma cell lines; also called G-protein coupled receptor family C group 5 member D; MM.1S, MOLP-8, L363, RPMI8226 cells
T2 sequence (Q9NZD1 whole entry): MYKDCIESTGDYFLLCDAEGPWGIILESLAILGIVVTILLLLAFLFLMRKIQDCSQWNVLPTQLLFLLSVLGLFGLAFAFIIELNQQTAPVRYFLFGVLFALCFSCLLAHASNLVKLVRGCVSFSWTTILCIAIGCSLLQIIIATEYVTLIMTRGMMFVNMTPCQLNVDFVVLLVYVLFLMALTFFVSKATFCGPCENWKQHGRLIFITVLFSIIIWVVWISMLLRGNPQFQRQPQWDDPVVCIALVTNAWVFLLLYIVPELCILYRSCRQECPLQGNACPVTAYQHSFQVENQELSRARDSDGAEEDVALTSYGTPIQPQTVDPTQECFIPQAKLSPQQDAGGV
The experiment in a line: FACS on MM.1S cells.

T1 sequence (P07766 23-207, chain 1 of 3): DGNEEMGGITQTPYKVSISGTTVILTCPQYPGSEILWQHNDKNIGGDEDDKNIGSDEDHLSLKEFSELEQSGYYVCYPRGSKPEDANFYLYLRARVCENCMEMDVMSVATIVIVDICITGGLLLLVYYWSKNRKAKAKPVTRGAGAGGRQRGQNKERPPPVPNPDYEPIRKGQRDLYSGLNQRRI
T1 sequence (P04234 22-171, chain 2 of 3): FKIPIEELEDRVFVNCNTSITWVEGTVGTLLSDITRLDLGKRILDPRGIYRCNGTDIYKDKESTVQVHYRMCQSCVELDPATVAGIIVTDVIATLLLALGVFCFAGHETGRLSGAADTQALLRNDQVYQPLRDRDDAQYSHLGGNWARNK
T1 sequence (P09693 23-182, chain 3 of 3): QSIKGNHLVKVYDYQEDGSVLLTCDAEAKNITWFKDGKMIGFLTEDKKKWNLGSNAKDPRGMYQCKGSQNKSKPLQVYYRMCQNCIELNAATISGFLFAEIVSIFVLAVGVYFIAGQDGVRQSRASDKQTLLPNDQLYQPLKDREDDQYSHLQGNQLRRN

B1: Bis-40E9-L2H9 (bispecific antibody)
VH: EVQLVQSGAEVKKPGASVKVSCKASGYTFTSYVIHWVRQAPGQGLEWMGYFNPYNDGTKYNEEFKGRVTLTSDKSTSTAYMELRSLRSDDTAVYYCARGGVRRYFDVWGQGTTVTVSS
VL: DIQMTQSPSSLSASVGDRVTITCRASQDIGSNLNWLQQKPGKAIKRLIYATFGLDSGVPSRFSGSRSGTDFTLTISSLQPEDFATYYCQQYASFPYTFGGGTKVEIK
scFv: EVQLVQSGAEVKKPGSSVKVSCKASGYTFSSYVIHWVRQAPGQCLEWMGYINPYSDVIKYNEKFKGRVTLTSDKSTSTAYMELSSLRSEDTAVYYCARESFYSYDGFAYWGQGTLVTVSSGGGGSGGGGSGGGGSGGGGSEIVLTQSPDFQSVTPKEKVTITCSASSSVSYMHWYQQKPDQSPKRLIYDTSKLASGVPSRFSGSGSGTDFTLTINSLEAEDAATYYCQQWSSNPPTFGCGTKVEIK
notes: L234A/L235A
As for B1, the binding result in assay [1] and in assay [2] was “binds” in each case.

B2: Bis-108+ch147 (bispecific antibody, V domains shown)
VH 1: EVQLVQSGAEVKKPGASVKVSCKASGYTFTSYVIHWVRQAPGQGLEWMGYFNPYNDGTKYNEEFKGRVTLTSDKSTSTAYMELRSLRSDDTAVYYCARGGVRRYFDVWGQGTTVTVSS
VL 1: DIQMTQSPSSLSASVGDRVTITCRASQDIGSNLNWLQQKPGKAIKRLIYATFGLDSGVPSRFSGSRSGTDFTLTISSLQPEDFATYYCQQYASFPYTFGGGTKVEIK
VH 2: QVQLQQPGTELVKPGTSVKLSCKASGYTFTSYWMHWVKQRPGQCLEWIGNINPSNGATNYNEKFKSKATLTVDKSSSTAYMQLSSLTSEDSAVYYCARDRSSQYYFDYWGQGTTLTVSS
VL 2: DIVMSQSPSSLAVSAGEKVTMSCKSSQSLLNSRSRKNYLAWYQQKPGQSPKLLIYWASTRESGVPDRFTGSGSGTDFTLTISSVQAEDLAVYYCTQSYTLRTFGCGTKLEIK
notes: Fab-scFv-Fab (2+1): two humanized anti-GPRC5D Fabs (first VH/VL) and one anti-CD3 scFv (second VH/VL, parental clone 147E11E2)
On to B2, for which the binding result in assay [1] and in assay [2] was “binds” each time.

B3: Bis-108+147-S32T.L (bispecific antibody, V domains shown)
VH 1: EVQLVQSGAEVKKPGASVKVSCKASGYTFTSYVIHWVRQAPGQGLEWMGYFNPYNDGTKYNEEFKGRVTLTSDKSTSTAYMELRSLRSDDTAVYYCARGGVRRYFDVWGQGTTVTVSS
VL 1: DIQMTQSPSSLSASVGDRVTITCRASQDIGSNLNWLQQKPGKAIKRLIYATFGLDSGVPSRFSGSRSGTDFTLTISSLQPEDFATYYCQQYASFPYTFGGGTKVEIK
VH 2: EVQLVQSGAEVKKPGSSVKVSCKASGYTFTSYWMHWVRQAPGQCLEWMGNINPSSGATNYNEKFKSRVTLTVDKSTSTAYMELSSLRSEDTAVYYCARDRSSQYYFDYWGQGTTVTVSS
VL 2: DIVMTQSPDSLAVSLGERATINCKSSQSLLNTRSRKNYLAWYQQKPGQPPKLLIYWASTRESGVPDRFSGSGSGTDFTLTISSLQAEDVAVYYCTQSYTLRTFGCGTKVEIK
notes: Fab-scFv-Fab (2+1): first VH/VL = anti-GPRC5D Fabs, second VH/VL = anti-CD3 scFv
Consider B3, for which the binding result in assay [1] and in assay [2] was “binds” each time.

B4: Bis-40E9-L2H7 (bispecific antibody)
VH: EVQLVQSGAEVKKPGASVKVSCKASGYTFTSYVIHWVRQAPGQGLEWMGYFNPYNDGTKYNEEFKGRVTLTSDKSTSTAYMELRSLRSDDTAVYYCARGGVRRYFDVWGQGTTVTVSS
VL: DIQMTQSPSSLSASVGDRVTITCRASQDIGSNLNWLQQKPGKAIKRLIYATFGLDSGVPSRFSGSRSGTDFTLTISSLQPEDFATYYCQQYASFPYTFGGGTKVEIK
scFv: EVQLVQSGAEVKKPGSSVKVSCKASGYTFSSYVIHWVRQAPGQCLEWMGYINPGNGVIKYNEKFKGRVTLTSDKSTSTAYMELSSLRSEDTAVYYCARDSYSSYDGFAYWGQGTLVTVSSGGGGSGGGGSGGGGSGGGGSEIVLTQSPDFQSVTPKEKVTITCSASSSVSYMHWYQQKPDQSPKRLIYDTSKLASGVPSRFSGSGSGTDFTLTINSLEAEDAATYYCQQWSSNPPTFGCGTKVEIK
notes: L234A/L235A
As for B4, the binding result in assay [1] and in assay [2] was “binds” throughout.

B5: Bis-40E9-L2H10 (bispecific antibody)
VH: EVQLVQSGAEVKKPGASVKVSCKASGYTFTSYVIHWVRQAPGQGLEWMGYFNPYNDGTKYNEEFKGRVTLTSDKSTSTAYMELRSLRSDDTAVYYCARGGVRRYFDVWGQGTTVTVSS
VL: DIQMTQSPSSLSASVGDRVTITCRASQDIGSNLNWLQQKPGKAIKRLIYATFGLDSGVPSRFSGSRSGTDFTLTISSLQPEDFATYYCQQYASFPYTFGGGTKVEIK
scFv: EVQLVQSGAEVKKPGSSVKVSCKASGYTFSSYVIHWVRQAPGQCLEWMGYINPYNDVIKYNEKFKGRVTLTSDKSTSTAYMELSSLRSEDTAVYYCARDSYYSYEAFAYWGQGTLVTVSSGGGGSGGGGSGGGGSGGGGSEIVLTQSPDFQSVTPKEKVTITCSASSSVSYMHWYQQKPDQSPKRLIYDTSKLASGVPSRFSGSGSGTDFTLTINSLEAEDAATYYCQQWSSNPPTFGCGTKVEIK
notes: L234A/L235A
With B5, the binding result in assay [1] and in assay [2] was “binds” in each case.

B6: Bis-108+147-K36R.L (bispecific antibody, V domains shown)
VH 1: EVQLVQSGAEVKKPGASVKVSCKASGYTFTSYVIHWVRQAPGQGLEWMGYFNPYNDGTKYNEEFKGRVTLTSDKSTSTAYMELRSLRSDDTAVYYCARGGVRRYFDVWGQGTTVTVSS
VL 1: DIQMTQSPSSLSASVGDRVTITCRASQDIGSNLNWLQQKPGKAIKRLIYATFGLDSGVPSRFSGSRSGTDFTLTISSLQPEDFATYYCQQYASFPYTFGGGTKVEIK
VH 2: EVQLVQSGAEVKKPGSSVKVSCKASGYTFTSYWMHWVRQAPGQCLEWMGNINPSSGATNYNEKFKSRVTLTVDKSTSTAYMELSSLRSEDTAVYYCARDRSSQYYFDYWGQGTTVTVSS
VL 2: DIVMTQSPDSLAVSLGERATINCKSSQSLLNSRSRRNYLAWYQQKPGQPPKLLIYWASTRESGVPDRFSGSGSGTDFTLTISSLQAEDVAVYYCTQSYTLRTFGCGTKVEIK
notes: as for B3
On to B6, for which the binding result in assay [1] and in assay [2] was “binds” throughout.

B7: Bis-40E9-L2H16 (bispecific antibody)
VH: EVQLVQSGAEVKKPGASVKVSCKASGYTFTSYVIHWVRQAPGQGLEWMGYFNPYNDGTKYNEEFKGRVTLTSDKSTSTAYMELRSLRSDDTAVYYCARGGVRRYFDVWGQGTTVTVSS
VL: DIQMTQSPSSLSASVGDRVTITCRASQDIGSNLNWLQQKPGKAIKRLIYATFGLDSGVPSRFSGSRSGTDFTLTISSLQPEDFATYYCQQYASFPYTFGGGTKVEIK
scFv: EVQLVQSGAEVKKPGSSVKVSCKASGYTFSDYVIHWVRQAPGQCLEWMGYINPYNDVIKYNEKFKGRVTLTSDKSTSTAYMELSSLRSEDTAVYYCARDSYYSYDGFAYWGQGTLVTVSSGGGGSGGGGSGGGGSGGGGSEIVLTQSPDFQSVTPKEKVTITCSASSSVSYMHWYQQKPDQSPKRLIYDTSKLASGVPSRFSGSGSGTDFTLTINSLEAEDAATYYCQQWSSNPPTFGCGTKVEIK
notes: L234A/L235A
For B7, the binding result in assay [1] and in assay [2] was “binds” each time.

B8: Bis-40E9-L2H14 (bispecific antibody)
VH: EVQLVQSGAEVKKPGASVKVSCKASGYTFTSYVIHWVRQAPGQGLEWMGYFNPYNDGTKYNEEFKGRVTLTSDKSTSTAYMELRSLRSDDTAVYYCARGGVRRYFDVWGQGTTVTVSS
VL: DIQMTQSPSSLSASVGDRVTITCRASQDIGSNLNWLQQKPGKAIKRLIYATFGLDSGVPSRFSGSRSGTDFTLTISSLQPEDFATYYCQQYASFPYTFGGGTKVEIK
scFv: EVQLVQSGAEVKKPGSSVKVSCKASGYTFSSYVIHWVRQAPGQCLEWMGYINPYNDVIKYNEKFKGRVTLTSDKSTSTAYMELSSLRSEDTAVYYCARESYYSYDGFAYWGQGTLVTVSSGGGGSGGGGSGGGGSGGGGSEIVLTQSPDFQSVTPKEKVTITCSASSSVSYMHWYQQKPDQSPKRLIYDTSKLASGVPSRFSGSGSGTDFTLTINSLEAEDAATYYCQQWSSNPPTFGCGTKVEIK
notes: L234A/L235A
For the molecule B8, the binding result in assay [1] and in assay [2] was “binds” throughout.

B9: Bis-40E9-L2H11 (bispecific antibody)
VH: EVQLVQSGAEVKKPGASVKVSCKASGYTFTSYVIHWVRQAPGQGLEWMGYFNPYNDGTKYNEEFKGRVTLTSDKSTSTAYMELRSLRSDDTAVYYCARGGVRRYFDVWGQGTTVTVSS
VL: DIQMTQSPSSLSASVGDRVTITCRASQDIGSNLNWLQQKPGKAIKRLIYATFGLDSGVPSRFSGSRSGTDFTLTISSLQPEDFATYYCQQYASFPYTFGGGTKVEIK
scFv: EVQLVQSGAEVKKPGSSVKVSCKASGYTFSSYVIHWVRQAPGQCLEWMGYINPYNDVIKYNEKFKGRVTLTSDKSTSTAYMELSSLRSEDTAVYYCARDSYYSYRAFAYWGQGTLVTVSSGGGGSGGGGSGGGGSGGGGSEIVLTQSPDFQSVTPKEKVTITCSASSSVSYMHWYQQKPDQSPKRLIYDTSKLASGVPSRFSGSGSGTDFTLTINSLEAEDAATYYCQQWSSNPPTFGCGTKVEIK
notes: L234A/L235A
On to B9, for which the binding result in assay [1] and in assay [2] was “binds” in each case.

B10: Bis-40E9-L5H7 (bispecific antibody)
VH: EVQLVQSGAEVKKPGASVKVSCKASGYTFTSYVIHWVRQAPGQGLEWMGYFNPYNDGTKYNEEFKGRVTLTSDKSTSTAYMELRSLRSDDTAVYYCARGGVRRYFDVWGQGTTVTVSS
VL: DIQMTQSPSSLSASVGDRVTITCRASQDIGSNLNWLQQKPGKAIKRLIYATFGLDSGVPSRFSGSRSGTDFTLTISSLQPEDFATYYCQQYASFPYTFGGGTKVEIK
scFv: EVQLVQSGAEVKKPGSSVKVSCKASGYTFSSYVIHWVRQAPGQCLEWMGYINPGNGVIKYNEKFKGRVTLTSDKSTSTAYMELSSLRSEDTAVYYCARDSYSSYDGFAYWGQGTLVTVSSGGGGSGGGGSGGGGSGGGGSEIVLTQSPDFQSVTPKEKVTITCSASSSVSYMHWYQQKPDQSPKRLIYDTSKLASGVPSRFSGSGSGTDFTLTINSLEAEDAATYYCQQWRSSPPTFGCGTKVEIK
notes: L234A/L235A
Regarding B10, the binding result in assay [1] and in assay [2] was “binds” each time.

B11: Bis-40E9-L2H6 (bispecific antibody)
VH: EVQLVQSGAEVKKPGASVKVSCKASGYTFTSYVIHWVRQAPGQGLEWMGYFNPYNDGTKYNEEFKGRVTLTSDKSTSTAYMELRSLRSDDTAVYYCARGGVRRYFDVWGQGTTVTVSS
VL: DIQMTQSPSSLSASVGDRVTITCRASQDIGSNLNWLQQKPGKAIKRLIYATFGLDSGVPSRFSGSRSGTDFTLTISSLQPEDFATYYCQQYASFPYTFGGGTKVEIK
scFv: EVQLVQSGAEVKKPGSSVKVSCKASGYTFSSYVIHWVRQAPGQCLEWMGYINPYNDVIKYNEKFKGRVTLTSDKSTSTAYMELSSLRSEDTAVYYCARESFSSYDGFAYWGQGTLVTVSSGGGGSGGGGSGGGGSGGGGSEIVLTQSPDFQSVTPKEKVTITCSASSSVSYMHWYQQKPDQSPKRLIYDTSKLASGVPSRFSGSGSGTDFTLTINSLEAEDAATYYCQQWSSNPPTFGCGTKVEIK
notes: L234A/L235A
For the molecule B11, the binding result in assay [1] and in assay [2] was “binds” throughout.
